Here are results for two proteins from patent US20200057047.

The target in series [1] is Myc-tagged IQGAP1 (wild type).
Series [2] has as its system Flag-tagged RORγt (wild type).

Flag-tagged RORγt (wild type), sequence (chain, as listed by the source): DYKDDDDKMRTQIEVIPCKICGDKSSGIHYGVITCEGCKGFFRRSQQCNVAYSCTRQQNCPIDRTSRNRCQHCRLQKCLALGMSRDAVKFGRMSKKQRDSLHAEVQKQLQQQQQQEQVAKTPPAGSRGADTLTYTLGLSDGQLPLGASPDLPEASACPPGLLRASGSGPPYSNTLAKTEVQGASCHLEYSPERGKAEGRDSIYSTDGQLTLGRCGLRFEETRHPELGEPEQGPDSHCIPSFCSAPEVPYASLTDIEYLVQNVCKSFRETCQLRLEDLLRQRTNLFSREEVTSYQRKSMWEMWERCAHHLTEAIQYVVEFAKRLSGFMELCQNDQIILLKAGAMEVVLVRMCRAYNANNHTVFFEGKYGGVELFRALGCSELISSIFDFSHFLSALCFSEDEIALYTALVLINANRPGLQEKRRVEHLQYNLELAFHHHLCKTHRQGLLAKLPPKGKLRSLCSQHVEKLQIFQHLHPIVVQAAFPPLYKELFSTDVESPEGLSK
Myc-tagged IQGAP1 (wild type), sequence (chain, as listed by the source): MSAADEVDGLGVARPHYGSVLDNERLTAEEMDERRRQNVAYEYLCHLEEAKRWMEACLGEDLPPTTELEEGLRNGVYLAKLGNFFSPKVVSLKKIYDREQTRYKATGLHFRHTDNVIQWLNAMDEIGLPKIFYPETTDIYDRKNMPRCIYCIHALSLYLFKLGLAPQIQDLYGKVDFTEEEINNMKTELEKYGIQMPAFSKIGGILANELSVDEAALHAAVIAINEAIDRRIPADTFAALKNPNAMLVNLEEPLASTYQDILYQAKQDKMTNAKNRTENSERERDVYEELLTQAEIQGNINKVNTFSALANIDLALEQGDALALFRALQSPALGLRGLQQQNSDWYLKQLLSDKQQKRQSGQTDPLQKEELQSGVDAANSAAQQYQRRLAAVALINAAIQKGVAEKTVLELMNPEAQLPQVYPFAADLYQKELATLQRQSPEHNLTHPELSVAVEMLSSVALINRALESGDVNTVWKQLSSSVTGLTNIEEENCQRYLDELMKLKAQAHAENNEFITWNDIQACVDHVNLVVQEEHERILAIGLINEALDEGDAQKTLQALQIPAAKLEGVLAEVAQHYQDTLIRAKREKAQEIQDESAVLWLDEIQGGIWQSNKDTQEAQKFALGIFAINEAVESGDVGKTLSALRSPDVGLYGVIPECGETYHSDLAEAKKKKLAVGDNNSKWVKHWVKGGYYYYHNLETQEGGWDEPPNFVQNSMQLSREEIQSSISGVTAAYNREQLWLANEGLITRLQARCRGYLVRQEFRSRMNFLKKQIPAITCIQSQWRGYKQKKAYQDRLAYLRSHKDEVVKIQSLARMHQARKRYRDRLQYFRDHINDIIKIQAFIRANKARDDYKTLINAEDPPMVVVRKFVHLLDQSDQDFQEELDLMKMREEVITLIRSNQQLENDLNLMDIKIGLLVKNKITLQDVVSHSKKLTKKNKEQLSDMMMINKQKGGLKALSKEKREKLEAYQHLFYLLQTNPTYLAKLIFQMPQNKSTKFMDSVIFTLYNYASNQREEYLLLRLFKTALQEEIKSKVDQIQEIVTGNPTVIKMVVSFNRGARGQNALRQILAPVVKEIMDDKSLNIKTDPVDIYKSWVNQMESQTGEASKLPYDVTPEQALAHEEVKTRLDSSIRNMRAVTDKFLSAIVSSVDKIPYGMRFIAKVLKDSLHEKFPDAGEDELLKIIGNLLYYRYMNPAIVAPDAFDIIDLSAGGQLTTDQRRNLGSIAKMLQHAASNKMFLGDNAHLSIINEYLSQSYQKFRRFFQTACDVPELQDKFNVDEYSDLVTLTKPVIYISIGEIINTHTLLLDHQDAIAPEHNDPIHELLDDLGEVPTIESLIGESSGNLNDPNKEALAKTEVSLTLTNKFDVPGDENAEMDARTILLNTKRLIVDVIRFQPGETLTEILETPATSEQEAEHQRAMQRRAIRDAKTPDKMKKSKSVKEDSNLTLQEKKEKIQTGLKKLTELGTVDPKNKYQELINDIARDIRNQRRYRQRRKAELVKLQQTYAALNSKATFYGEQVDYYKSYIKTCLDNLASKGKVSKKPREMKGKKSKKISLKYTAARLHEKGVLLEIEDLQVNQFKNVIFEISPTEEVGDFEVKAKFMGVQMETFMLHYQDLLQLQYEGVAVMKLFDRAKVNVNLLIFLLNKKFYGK

B1: Flag-tagged GLK (protein)
chain: DYKDDDDKMNPGFDLSRRNPQEDFELIQRIGSGTYGDVYKARNVNTGELAAIKVIKLEPGEDFAVVQQEIIMMKDCKHPNIVAYFGSYLRRDKLWICMEFCGGGSLQDIYHVTGPLSELQIAYVSRETLQGLYYLHSKGKMHRDIKGANILLTDNGHVKLADFGVSAQITATIAKRKSFIGTPYWMAPEVAAVERKGGYNQLCDLWAVGITAIELAELQPPMFDLHPMRALFLMTKSNFQPPKLKDKMKWSNSFHHFVKMALTKNPKKRPTAEKLLQHPFVTQHLTRSLAIELLDKVNNPDHSTYHDFDDDDPEPLVAVPHRIHSTSRNVREEKTRSEITFGQVKFDPPLRKETEPHHELPDSDGFLDSSEEIYYTARSNLDLQLEYGQGHQGGYFLGANKSLLKSVEEELHQRGHVAHLEDDEGDDDESKHSTLKAKIPPPLPPKPKSIFIPQEMHSTEDENQGTIKRCPMSGSPAKPSQVPPRPPPPRLPPHKPVALGNGMSSFQLNGERDGSLCQQQNEHRGTNLSRKEKKDVPKPISNGLPPTPKVHMGACFSKVFNGCPLKIHCASSWINPDTRDQYLIFGAEEGIYTLNLNELHETSMEQLFPRRCTWLYVMNNCLLSISGKASQLYSHNLPGLFDYARQMQKLPVAIPAHKLPDRILPRKFSVSAKIPETKWCQKCCVVRNPYTGHKYLCGALQTSIVLLEWVEPMQKFMLIKHIDFPIPCPLRMFEMLVVPEQEYPLVCVGVSRGRDFNQVVRFETVNPNSTSSWFTESDTPQTNVTHVTQLERDTILVCLDCCIKIVNLQGRLKSSRKLSSELTFDFQIESIVCLQDSVLAFWKHGMQGRSFRSNEVTQEISDSTRIFRLLGSDRVVVLESRPTDNPTANSNLYILAGHENSY
For the protein B1, the “in vitro kinase assay: IQGAP1 phosphorylation” value in series [1] is reported as “IQGAP1 phosphorylation was induced by GLK”.

B2: IKKβ (immunoprecipitated from HEK293T transfectants) (enzyme, UniProt O14920 1-756, looked up, species assumed)
Inhibitor of nuclear factor kappa-B kinase subunit beta: MSWSPSLTTQTCGAWEMKERLGTGGFGNVIRWHNQETGEQIAIKQCRQELSPRNRERWCLEIQIMRRLTHPNVVAARDVPEGMQNLAPNDLPLLAMEYCQGGDLRKYLNQFENCCGLREGAILTLLSDIASALRYLHENRIIHRDLKPENIVLQQGEQRLIHKIIDLGYAKELDQGSLCTSFVGTLQYLAPELLEQQKYTVTVDYWSFGTLAFECITGFRPFLPNWQPVQWHSKVRQKSEVDIVVSEDLNGTVKFSSSLPYPNNLNSVLAERLEKWLQLMLMWHPRQRGTDPTYGPNGCFKALDDILNLKLVHILNMVTGTIHTYPVTEDESLQSLKARIQQDTGIPEEDQELLQEAGLALIPDKPATQCISDGKLNEGHTLDMDLVFLFDNSKITYETQISPRPQPESVSCILQEPKRNLAFFQLRKVWGQVWHSIQTLKEDCNRLQQGQRAAMMNLLRNNSCLSKMKNSMASMSQQLKAKLDFFKTSIQIDLEKYSEQTEFGITSDKLLLAWREMEQAVELCGRENEVKLLVERMMALQTDIVDLQRSPMGRKQGGTLDDLEEQARELYRRLREKPRDQRTEGDSQEMVRLLLQAIQSFEKKVRVIYTQLSKTVVCKQKALELLPKVEEVVSLMNEDEKTVVRLQEKRQKELWNLLKIACSKVRGPVSGSPDSMNASRLSQPGQLMSQPSTASNSLPEPAKKSEELVAEAHNLCTLLENAIQDTVREQDQSFTALDWSWLQTEEEEHSCLEQAS
For B2, in series [2], the “in vitro kinase assay: RORγt phosphorylation” value is reported as “RORγt phosphorylation was induced in vitro by IKKβ”.
